Series [1] deals with p300 TAZ2 domain (residues 1723–1812) (UniProt Q09472). As to the kind of experiment: NMR titration; 1H-15N HSQC of 15N-TAZ2 (50 μM); NUT fragment or peptide titrated from 7.8 μM to 1000 μM; 200 mM phosphate buffer pH 6.3; overlays at TAZ2/NUT molar ratio 1:3; single-site binding model.
The target is the same in series [2]. Described as above. The source holds these as a separate data set.
Series [3] concerns the molecule itself. Kind of series: SEC; Superdex 200 Increase 10/300 GL in PBS, 0.3 ml/min; samples 0.8 mM; MBP-TAZ2/His-F1c in 1:1 mix ratio; calibrated with protein standards. Background: Size exclusion chromatography separates by hydrodynamic size, large species first.

We go through five molecules from article PMC9870903, “Structural mechanism of BRD4-NUT and p300 bipartite interaction in propagating aberrant gene transcription in chromatin in NUT carcinoma” (Nature Communications, 2023).

Read-outs that look alike come from different tables or passages of the source.

Turning to “NUT fragment of residues 377–418 (as added in NMR) (from UniProt Q86Y26 377-418) (domain or fragment)”, the Kd in series [1] worked out at 32 µM. Same read-out and setting: the result for “NUT fragment of residues 419–470 (as added in NMR) (from UniProt Q86Y26 419-470) (domain or fragment)” reads 36 µM.

B1: F1c peptide (residues 403–418) (peptide)
peptide: GMYPDPGLLSYINELC
Take B1: the Kd in series [2] was determined as 115 µM.

B2: F1c peptide (residues 435–454) (peptide)
peptide: FLADLLSPEKQRDPLALIEE
On to B2, for which the Kd in series [2] is 958 µM.

B3: His-F1c (residues 346–592) (domain or fragment, UniProt Q86Y26 346-592, looked up)
chain: RRQRKAQRPPAPEAPKEIPPEAVKEYVDIMEWLVGTHLATGESDGKQEEEGQQQEEEGMYPDPGLLSYINELCSQKVFVSKVEAVIHPQFLADLLSPEKQRDPLALIEELEQEEGLTLAQLVQKRLMALEEEEDAEAPPSFSGAQLDSSPSGSVEDEDGDGRLRPSPGLQGAGGAACLGKVSSSGKRAREVHGGQEQALDSPRGMHRDGNTLPSPSSWDLQPELAAPQGTPGPLGVERRGSGKVINQ
notes: also called free His-F1c; source: purified; not shown: His, N-terminal, kept
For the molecule B3, the “stoichiometry N” value in series [3] is 5.

A word on the Kd: it is the equilibrium constant for the complex coming apart. The term stoichiometry N denotes the number of molecules, sites or subunits per partner or assembly.
